In US11427869B2, “T cell balance gene expression, compositions of matters and methods of use thereof” (THE BROAD INSTITUTE, INC., priority 2015, dated 2022):

System: Th17 cells
Assay: qPCR of Cd5l expression in differentiated T cells
Format: cell-based, mouse
Conditions: naïve T cells differentiated with TGF-β1+IL-6 for 48h, expanded in IL-23 in fresh media, 72h
Experimental: FIG. 16A-16I. CD5L is a candidate regulator of Th17 cell functional states. (FIG. 16A-FIG. 16C) Single-cell RNA-seq analysis. (FIG. 16A) Cd5l expression of single-cells from in-vitro generated and in-vivo sorted Th17 cells (IL-17.GFP+) from mice at the peak of EAE. […] (FIG. 16D-FIG. 16F) Validation of CD5L expression in vitro. Naïve T cells (CD4+CD62L+CD44−CD25−) were sorted and differentiated as indicated and analyzed by qPCR for CD5L expression at 48h (D) and 72h (E) and by flow cytometry at 48h (F); (E) IL-23 or control was added at 48h in fresh media. (FIG. 16G-FIG. 16I) Validation of Cd5l expression in vivo. (G,H) IL-17A.GFP reporter mice were immunized to induce EAE. Cells were sorted from spleen (G) and CNS (H) at the peak of disease. Cd5l and Il17a expression are measured by qPCR. Figure shown is representative data of three technical replicates from two independent experiments. (I) Cells were sorted from the gut of naïve mice and the number of RNA transcripts measured by nanostring nCounter platform.
Next, Applicants explored whether CD5L expression is associated with less pathogenic Th17 cells in vivo. Applicants analyzed Th17 cells isolated from mice induced with EAE. […] Next, Applicants analyzed Th17 cells from mesenteric lymph nodes (mLN) and lamina propria (LP) of naïve mice, where Th17 cells contribute to tissue homeostasis and mucosal barrier function. […]

B1: IL-23: recombinant mouse IL-23 (R&D), 20 ng/ml (protein, UniProt Q9EQ14 22-196; P43432 23-335, looked up)
Interleukin-23 subunit alpha: VPRSSSPDWAQCQQLSRNLCMLAWNAHAPAGHMNLLREEEDEETKNNVPRIQCEDGCDPQGLKDNSQFCLQRIRQGLAFYKHLLDSDIFKGEPALLPDSPMEQLHTSLLGLSQLLQPEDHPRETQQMPSLSSSQQWQRPLLRSKILRSLQAFLAIAARVFAHGAATLTEPLVPTA
Interleukin-12 subunit beta: MWELEKDVYVVEVDWTPDAPGETVNLTCDTPEEDDITWTSDQRHGVIGSGKTLTITVKEFLDAGQYTCHKGGETLSHSHLLLHKKENGIWSTEILKNFKNKTFLKCEAPNYSGRFTCSWLVQRNMDLKFNIKSSSSSPDSRAVTCGMASLSAEKVTLDQRDYEKYSVSCQEDVTCPTAEETLPIELALEARQQNKYENYSTSFFIRDIIKPDPPKNLQMKPLKNSQVEVSWEYPDSWSTPHSYFSLKFFVRIQRKKEKMKETEEGCNQKGAFLVEKTSTEVQCKGGNVCVQAQDRYYNSSCSKWACVPCRVRS
Cd5l expression (qPCR): suppressed
